Measurements from patent US20210388087A1.
Where a chain is given by its changes, count along the chain named. Names may count otherwise.

B1: H183/L072 VH K52P (antibody, name in Kabat numbering, V domains shown)
VH: QVQLVESGGGLVQPGRSLRLSCAASGFTFSNAWMHWVRQAPGKGLEWVAQIPDKGNAYAAYYAPSVKGRFTISRDDSKNSIYLQMNSLKTEDTAVYYCHYVHYASASTVLPAFGVDAWGQGTTVTVSS
VL: DIVMTQSPLSLPVTPGEPASISCQASQELVHMNRNTYLHWYQQKPGQAPRLLIYKVSNRFPGVPDRFSGSGSGTDFTLKISRVEAEDVGVYYCAQGTSVPFTFGQGTKLEIK
B2: H183/L072 VH D52aP (antibody, name in Kabat numbering, V domains shown)
VH: B1 VH with P52K, D53P
VL: B1 VL
B3: H183/L072 VH N53P (antibody, name in Kabat numbering, V domains shown)
VH: B1 VH with P52K, N56P
VL: B1 VL
B4: H183/L072 VH A54P (antibody, name in Kabat numbering, V domains shown)
VH: B1 VH with P52K, A57P
VL: B1 VL
B5: H183/L072 VH Y55P (antibody, name in Kabat numbering, V domains shown)
VH: B1 VH with P52K, Y58P
VL: B1 VL
B6: H183/L072 VH G26V (antibody, name in Kabat numbering, V domains shown)
VH: B1 VH with G26V, P52K
VL: B1 VL
B7: H183/L072 VH W33V (antibody, name in Kabat numbering, V domains shown)
VH: B1 VH with W33V, P52K
VL: B1 VL
B8: H183/L072 VH K52V (antibody, name in Kabat numbering, V domains shown)
VH: B1 VH with P52V
VL: B1 VL
B9: H183/L072 VH D52aV (antibody, name in Kabat numbering, V domains shown)
VH: B1 VH with P52K, D53V
VL: B1 VL
B10: H183/L072 VH N53V (antibody, name in Kabat numbering, V domains shown)
VH: B1 VH with P52K, N56V
VL: B1 VL
B11: H183/L072 VH Y55V (antibody, name in Kabat numbering, V domains shown)
VH: B1 VH with P52K, Y58V
VL: B1 VL
B12: H183/L072 VH F29G (antibody, name in Kabat numbering, V domains shown)
VH: B1 VH with F29G, P52K
VL: B1 VL
B13: H183/L072 VH W33G (antibody, name in Kabat numbering, V domains shown)
VH: B1 VH with W33G, P52K
VL: B1 VL
B14: H183/L072 VH M34G (antibody, name in Kabat numbering, V domains shown)
VH: B1 VH with M34G, P52K
VL: B1 VL
B15: H183/L072 VH H35G (antibody, name in Kabat numbering, V domains shown)
VH: B1 VH with H35G, P52K
VL: B1 VL
B16: H183/L072 VH Q50G (antibody, name in Kabat numbering, V domains shown)
VH: B1 VH with Q50G, P52K
VL: B1 VL
B17: H183/L072 VH K52G (antibody, name in Kabat numbering, V domains shown)
VH: B1 VH with P52G
VL: B1 VL
B18: H183/L072 VH D52aG (antibody, name in Kabat numbering, V domains shown)
VH: B1 VH with P52K, D53G
VL: B1 VL

What follows are binders tested against Human CD137 ECD (human) (assay: single mutant vs template dBBDu183H).
Chain of Human CD137 ECD (human) (chain, as listed by the source limits assumed): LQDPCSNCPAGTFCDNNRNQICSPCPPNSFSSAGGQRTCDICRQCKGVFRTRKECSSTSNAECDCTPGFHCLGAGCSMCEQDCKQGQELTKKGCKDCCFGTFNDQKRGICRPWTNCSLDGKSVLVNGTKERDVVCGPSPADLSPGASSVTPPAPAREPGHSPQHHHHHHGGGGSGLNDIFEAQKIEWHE

Fold change of affinity, 0 fold:
B1, B2, B3, B4, B5, B6, B7, B8, B9, B10, B11, B12, B13, B14, B15, B16, B17, B18
